Measurements reported in paper PMC7688639, “Biased localization of actin binding proteins by actin filament conformation” (Nature Communications, 2020).

Columns and labels:
[1] = target: T1, actin filaments (F-actin) polymerised from rabbit muscle actin (rabbit, UniProt P68135 1-377); assay: single-molecule TIRF binding kinetics (on-rate); tethered actin filaments; frequency of binding events for a range of concentrations of actin-binding domain, linear regression of frequency against concentration; conditions: both partners purified
[2] = target: T1, actin filaments (F-actin) polymerised …; assay: single-molecule TIRF binding kinetics (dwell times); actin filaments tethered to a PEG/biotin-PEG coverslip by streptavidin and biotin-phalloidin; labelled binding domain in solution at ~0.05–0.1 nM; 25 mM imidazole, 25 mM KCl, 4 mM MgCl2, 1 mM EGTA, 1 mM DTT, pH 7.4, 10 µg/mL beta casein; double exponential fit of the CDF, bleaching corrected; conditions: both partners purified

Binder | kon [1] | average dwell time (τav) [2] | ratio of the two dwell-time scales (τ2/τ1) [2]
actin-binding domain of human utrophin (CH1–CH2, AA 1–261) (domain or fragment, maleimide dye on the C-terminal KCK linker (Alexa-488 C5, Alexa-555 C2 or Alexa-647 C2 maleimide; Alexa-555 named as the dye of the dwell-time experiments), KCK linker on the C terminus for maleimide labelling; both cleaved by TEV; also called utrnWT; utrn ABD; source: E. coli BL21 (DE3) pLysS, purified (IMAC, TEV cleavage, size exclusion chromatography); not shown: His10, N-terminal, cleaved; z-tag, N-terminal, cleaved) MAKYGEHEASPDNGQNEFSDIIKSRSDEHNDVQKKTFTKWINARFSKSGKPPINDMFTDLKDGRKLLDLLEGLTGTSLPKERGSTRVHALNNVNRVLQVLHQNNVELVNIGGTDIVDGNHKLTLGLLWSIILHWQVKDVMKDVMSDLQQTNSEKILLSWVRQTTRPYSQVNVLNFTTSWTDGLAFNAVLHRHKPDLFSWDKVVKMSPIERLEHAFSKAQTYLGIEKLLDPEDVAVQLPDKKSIIMYLTSLFEVLPQQVTIDGGSGKCKSA | 2.2e+06 ± 300000 M⁻¹ s⁻¹ | ~1.1 s | 18.3
utrophin actin-binding domain Q33A T36A K121A (domain or fragment, maleimide dye on the C-terminal KCK linker (Alexa-488 C5, Alexa-555 C2 or Alexa-647 C2 maleimide; Alexa-555 named as the dye of the dwell-time experiments), KCK linker on the C terminus for maleimide labelling; also called utrnLAM; source: E. coli BL21 (DE3) pLysS, purified (IMAC, TEV cleavage, size exclusion chromatography); not shown: His10, N-terminal, cleaved; z-tag, N-terminal, cleaved) MAKYGEHEASPDNGQNEFSDIIKSRSDEHNDVAKKAFTKWINARFSKSGKPPINDMFTDLKDGRKLLDLLEGLTGTSLPKERGSTRVHALNNVNRVLQVLHQNNVELVNIGGTDIVDGNHALTLGLLWSIILHWQVKDVMKDVMSDLQQTNSEKILLSWVRQTTRPYSQVNVLNFTTSWTDGLAFNAVLHRHKPDLFSWDKVVKMSPIERLEHAFSKAQTYLGIEKLLDPEDVAVQLPDKKSIIMYLTSLFEVLPQQVTIDGGSGKCKSA | 2.4e+06 ± 300000 M⁻¹ s⁻¹ | ~1.3 s | 9.6
utrophin actin-binding domain Q33A T36A G125A L132A (domain or fragment, maleimide dye on the C-terminal KCK linker (Alexa-488 C5, Alexa-555 C2 or Alexa-647 C2 maleimide; Alexa-555 named as the dye of the dwell-time experiments), KCK linker on the C terminus for maleimide labelling; also called utrnSF; source: E. coli BL21 (DE3) pLysS, purified (IMAC, TEV cleavage, size exclusion chromatography); not shown: His10, N-terminal, cleaved; z-tag, N-terminal, cleaved) MAKYGEHEASPDNGQNEFSDIIKSRSDEHNDVAKKAFTKWINARFSKSGKPPINDMFTDLKDGRKLLDLLEGLTGTSLPKERGSTRVHALNNVNRVLQVLHQNNVELVNIGGTDIVDGNHKLTLALLWSIIAHWQVKDVMKDVMSDLQQTNSEKILLSWVRQTTRPYSQVNVLNFTTSWTDGLAFNAVLHRHKPDLFSWDKVVKMSPIERLEHAFSKAQTYLGIEKLLDPEDVAVQLPDKKSIIMYLTSLFEVLPQQVTIDGGSGKCKSA | 5e+06 ± 2e+06 M⁻¹ s⁻¹ | ~4.6 s | –
